Experimental data published in patent US20170342349A1, “STABILIZED ENZYME COMPOSITIONS” (NOVOZYMES A/S, priority 2014, published 2017).
Blank lines part the entries; values can stand above or below the molecule they belong to.

Key:
Assay type in all cases: biochemical
[1] = Inhibitor binding assay of SEQ ID NO 6 variants, Inhibitor 1, in Model B detergent; settings: in Model B relative to SEQ ID NO 6; relative Ki, IF>1.0 = lower Ki
Text: (§1) Where E is the protease, I is the inhibitor and EI is the protease-inhibitor complex. […] The concentration of enzyme-inhibitor in the detergent solution is then given by:
(§2) where Etot is the total protease concentration ([Etot]=[E]+[EI]), Itot is the total inhibitor concentration ([Itot]=[I]+[EI]), and Ki is the equilibrium binding constant for the reaction. The measured slopes V are given by:
(§3) where V0 is the slope without inhibitor added. To calculate apparent binding constant Ki least square fitting of measured slopes at various inhibitor concentrations to this equation is performed with Ki and V0 as variables.
(§4) Purified protease variants are pre-diluted to approximately 0.2 mg/ml in dilution buffer. The experimental conditions are described in Table 5 40 μl diluted protease is then mixed with 40 μl inhibitor solution Inhibitor 1 or 40 μl inhibitor 2 solution in the well of a 96 well microtiter plate (Nunc F 96-MTP). […] After 10 min mixing of protease and inhibitor at room temperature, 30 μl of the mixture is transferred to a microtiter plate (Nunc U96 PP 0.5 ml) with 270 μl Model B detergent (described in Table 1) in the wells resulting in inhibitor 1 concentrations of 0-30 μM and inhibitor 2 concentrations of 0-6000 μM. Protease, inhibitor and detergent is mixed for 1 hour using magnetic bars for 1 hour at room temperature to reach equilibrium. Then 20 μl is transferred to a microtiter plate (Nunc F 96-MTP). 100 μl substrate solution is added and after 5 sec mixing absorbance at 405 nm is measured every 20 sec for 5 min on a SpectraMax Plus reader. Slope from linear regression of initial increase in absorbance at 405 nm is used for calculation of apparent binding constants. Ki values were calculated according to the “Calculation of Ki” method described in “Materials and Methods”
(§5) Having the Ki for each variant, it is possible to calculate the effect of a single mutation, if data are available for at least two variants that differ only by that mutation. In this case, the relative Ki for the mutation (Improvement Factor, or IF) is calculated: […]

[2] = Inhibitor binding assay of SEQ ID NO 6 variants, Inhibitor 2, in Model B detergent; settings: in Model B relative to SEQ ID NO 6; relative Ki, IF>1.0 = lower Ki
Text: as §1, §2, §3, §4, §5

[3] = Inhibitor binding assay of SEQ ID NO 3 variants, Inhibitor 2, in Model B detergent; settings: in Model B relative to SEQ ID NO 3; relative Ki, IF>1.0 = lower Ki
Text: as §1, §2, §3
(§6) Purified protease variants are pre-diluted to approximately 0.2 mg/ml in dilution buffer. The experimental conditions are described in Table 5. 40 μl diluted protease is then mixed with 40 μl inhibitor solution Inhibitor 1: (Cbz-Gly-Ala-NHCH(CH2C6H4pOH)C(OH)(SO3Na)—H, wherein Cbz is benzyloxycarbonyl) or 40 μl Inhibitor 2: (4-FPBA) solution in the well of a 96 well microtiter plate (Nunc F 96-MTP). […] After 10 min mixing of protease and inhibitor at room temperature, 30 μl of the mixture is transferred to a microtiter plate (Nunc U96 PP 0.5 ml) with 270 μl Model B detergent (described in Table 1) in the wells resulting in inhibitor 1 concentrations of 0-30 μM and inhibitor 2 concentrations of 0-6000 μM. Protease, inhibitor and detergent is mixed for 1 hour using magnetic bars for 1 hour at room temperature to reach equilibrium. Then 20 μl is transferred to a microtiter plate (Nunc F 96-MTP). 100 μl substrate solution is added and after 5 sec mixing absorbance at 405 nm is measured every 20 sec for 5 min on a SpectraMax Plus reader. Slope from linear regression of initial increase in absorbance at 405 nm is used for calculation of apparent binding constants. Ki values were calculated according to the “Calculation of Ki” method described in “Materials and Methods”
(§7) Having the Ki for each variant, it is possible to calculate the effect of a single mutation, if data are available for at least two variants that differ only by that mutation. In this case, the relative Ki for the mutation (Improvement Factor, or IF) is calculated:
(§8) A lower Ki is desirable, as a satisfactory inhibition can be obtained at a lower inhibitor concentration, so beneficial mutations have an IF>1.0

[4] = Inhibitor binding assay of SEQ ID NO 3 variants, Inhibitor 1, in Model B detergent; settings: relative Ki, IF>1.0 = lower Ki
Text: as §1, §2, §3, §6, §7, §8

[5] = in Model B relative to SEQ ID NO 3 comprising S173P + S175P + F180Y

B1: N60F + S100I: protease variant of SEQ ID NO 6 (protein)
chain: AQSVPWGISRVQAPAAHNRGLTGSGVKVAVLDTGISTHPDLNIRGGASFVPGEPSTQDGFGHGTHVAGTIAALNNSIGVLGVAPSAELYAVKVLGASEGIGSVSSIAQGLEWAGNNGMHVANLSLGSPSPSATLEQAVNSATSRGVLVVAASGNSGAGSISYPARYANAMAVGATDQNNNRASFSQYGAGLDIVAPGVNVQSTYPGSTYASLNGTSMATPHVAGAAALVKQKNPSWSNVQIRNHLKNTATSLGSTNLYGSGLVNAEAATR
modifications: Protease C
inhibitor 1 binding constant improvement factors (IF) [1]: 11.26

B3: S100I + L134V: protease variant of SEQ ID NO 6 (protein)
chain: AQSVPWGISRVQAPAAHNRGLTGSGVKVAVLDTGISTHPDLNIRGGASFVPGEPSTQDGNGHGTHVAGTIAALNNSIGVLGVAPSAELYAVKVLGASEGIGSVSSIAQGLEWAGNNGMHVANLSLGSPSPSATVEQAVNSATSRGVLVVAASGNSGAGSISYPARYANAMAVGATDQNNNRASFSQYGAGLDIVAPGVNVQSTYPGSTYASLNGTSMATPHVAGAAALVKQKNPSWSNVQIRNHLKNTATSLGSTNLYGSGLVNAEAATR
modifications: Protease C
inhibitor 2 binding constant improvement factors (IF) [2]: 1.1
inhibitor 1 binding constant improvement factors (IF) [1]: 15.14

B4: S100I + Y166F: protease variant of SEQ ID NO 6 (protein)
chain: AQSVPWGISRVQAPAAHNRGLTGSGVKVAVLDTGISTHPDLNIRGGASFVPGEPSTQDGNGHGTHVAGTIAALNNSIGVLGVAPSAELYAVKVLGASEGIGSVSSIAQGLEWAGNNGMHVANLSLGSPSPSATLEQAVNSATSRGVLVVAASGNSGAGSISYPARFANAMAVGATDQNNNRASFSQYGAGLDIVAPGVNVQSTYPGSTYASLNGTSMATPHVAGAAALVKQKNPSWSNVQIRNHLKNTATSLGSTNLYGSGLVNAEAATR
modifications: Protease C
inhibitor 2 binding constant improvement factors (IF) [2]: 2.31
inhibitor 1 binding constant improvement factors (IF) [1]: 11.26

B7: S144R: protease variant of SEQ ID NO 3 (protein, listed as Bacillus sp.)
chain: AVPSTQTPWGIKSIYNDQSITKTTGGSGIKVAVLDTGVYTSHLDLAGSAEQCKDFTQSNPLVDGSCTDRQGHGTHVAGTVLAHGGSNGQGVYGVAPQAKLWAYKVLGDNGSGYSDDIAAAIRHVADEASRTGSKVVINMSLGSRAKDSLIASAVDYAYGKGVLIVAAAGNSGSGSNTIGFPGGLVNAVAVAALENVQQNGTYRVADFSSRGNPATAGDYIIQERDIEVSAPGASVESTWYTGGYNTISGTSMATPHVAGLAAKIWSANTSLSHSQLRTELQNRAKVYDIKGGIGAGTGDDYASGFGYPRVK
inhibitor 2 binding constant improvement factors (IF) [3]: 2.03

B8: A145E: protease variant of SEQ ID NO 3 (protein, listed as Bacillus sp.)
chain: AVPSTQTPWGIKSIYNDQSITKTTGGSGIKVAVLDTGVYTSHLDLAGSAEQCKDFTQSNPLVDGSCTDRQGHGTHVAGTVLAHGGSNGQGVYGVAPQAKLWAYKVLGDNGSGYSDDIAAAIRHVADEASRTGSKVVINMSLGSSEKDSLIASAVDYAYGKGVLIVAAAGNSGSGSNTIGFPGGLVNAVAVAALENVQQNGTYRVADFSSRGNPATAGDYIIQERDIEVSAPGASVESTWYTGGYNTISGTSMATPHVAGLAAKIWSANTSLSHSQLRTELQNRAKVYDIKGGIGAGTGDDYASGFGYPRVK
inhibitor 2 binding constant improvement factors (IF) [3]: 1.03

B9: S111D: protease variant of SEQ ID NO 3 (protein, listed as Bacillus sp.)
chain: AVPSTQTPWGIKSIYNDQSITKTTGGSGIKVAVLDTGVYTSHLDLAGSAEQCKDFTQSNPLVDGSCTDRQGHGTHVAGTVLAHGGSNGQGVYGVAPQAKLWAYKVLGDNGDGYSDDIAAAIRHVADEASRTGSKVVINMSLGSSAKDSLIASAVDYAYGKGVLIVAAAGNSGSGSNTIGFPGGLVNAVAVAALENVQQNGTYRVADFSSRGNPATAGDYIIQERDIEVSAPGASVESTWYTGGYNTISGTSMATPHVAGLAAKIWSANTSLSHSQLRTELQNRAKVYDIKGGIGAGTGDDYASGFGYPRVK
inhibitor 2 binding constant improvement factors (IF) [3]: 1.53

B10: S111E: protease variant of SEQ ID NO 3 (protein, listed as Bacillus sp.)
chain: AVPSTQTPWGIKSIYNDQSITKTTGGSGIKVAVLDTGVYTSHLDLAGSAEQCKDFTQSNPLVDGSCTDRQGHGTHVAGTVLAHGGSNGQGVYGVAPQAKLWAYKVLGDNGEGYSDDIAAAIRHVADEASRTGSKVVINMSLGSSAKDSLIASAVDYAYGKGVLIVAAAGNSGSGSNTIGFPGGLVNAVAVAALENVQQNGTYRVADFSSRGNPATAGDYIIQERDIEVSAPGASVESTWYTGGYNTISGTSMATPHVAGLAAKIWSANTSLSHSQLRTELQNRAKVYDIKGGIGAGTGDDYASGFGYPRVK
inhibitor 2 binding constant improvement factors (IF) [3]: 1.23

Other lines, results leading:

inhibitor 2 binding constant improvement factors (IF) [2]: 1.84
B2: A164S: protease variant of SEQ ID NO 6 (protein)
chain: AQSVPWGISRVQAPAAHNRGLTGSGVKVAVLDTGISTHPDLNIRGGASFVPGEPSTQDGNGHGTHVAGTIAALNNSIGVLGVAPSAELYAVKVLGASEGSGSVSSIAQGLEWAGNNGMHVANLSLGSPSPSATLEQAVNSATSRGVLVVAASGNSGAGSISYPSRYANAMAVGATDQNNNRASFSQYGAGLDIVAPGVNVQSTYPGSTYASLNGTSMATPHVAGAAALVKQKNPSWSNVQIRNHLKNTATSLGSTNLYGSGLVNAEAATR
modifications: Protease C

inhibitor 2 binding constant improvement factors (IF) [3]: 1.39
inhibitor 1 binding constant improvement factors (IF) ([4]; in Model B relative to SEQ ID NO 3): 2.27
B5: L184F: protease variant of SEQ ID NO 3 (protein, listed as Bacillus sp.)
chain: AVPSTQTPWGIKSIYNDQSITKTTGGSGIKVAVLDTGVYTSHLDLAGSAEQCKDFTQSNPLVDGSCTDRQGHGTHVAGTVLAHGGSNGQGVYGVAPQAKLWAYKVLGDNGSGYSDDIAAAIRHVADEASRTGSKVVINMSLGSSAKDSLIASAVDYAYGKGVLIVAAAGNSGSGSNTIGFPGGFVNAVAVAALENVQQNGTYRVADFSSRGNPATAGDYIIQERDIEVSAPGASVESTWYTGGYNTISGTSMATPHVAGLAAKIWSANTSLSHSQLRTELQNRAKVYDIKGGIGAGTGDDYASGFGYPRVK

inhibitor 1 binding constant improvement factors (IF) [4, 5]: 3.28
B6: S173P + S175P + F180Y + L184D: protease variant of SEQ ID NO 3 (protein, listed as Bacillus sp.)
chain: AVPSTQTPWGIKSIYNDQSITKTTGGSGIKVAVLDTGVYTSHLDLAGSAEQCKDFTQSNPLVDGSCTDRQGHGTHVAGTVLAHGGSNGQGVYGVAPQAKLWAYKVLGDNGSGYSDDIAAAIRHVADEASRTGSKVVINMSLGSSAKDSLIASAVDYAYGKGVLIVAAAGNSGPGPNTIGYPGGDVNAVAVAALENVQQNGTYRVADFSSRGNPATAGDYIIQERDIEVSAPGASVESTWYTGGYNTISGTSMATPHVAGLAAKIWSANTSLSHSQLRTELQNRAKVYDIKGGIGAGTGDDYASGFGYPRVK

inhibitor 1 binding constant improvement factors (IF) [4, 5]: 2.50
B11: S173P + S175P + F180Y + L184H: protease variant of SEQ ID NO 3 (protein, listed as Bacillus sp.)
chain: AVPSTQTPWGIKSIYNDQSITKTTGGSGIKVAVLDTGVYTSHLDLAGSAEQCKDFTQSNPLVDGSCTDRQGHGTHVAGTVLAHGGSNGQGVYGVAPQAKLWAYKVLGDNGSGYSDDIAAAIRHVADEASRTGSKVVINMSLGSSAKDSLIASAVDYAYGKGVLIVAAAGNSGPGPNTIGYPGGHVNAVAVAALENVQQNGTYRVADFSSRGNPATAGDYIIQERDIEVSAPGASVESTWYTGGYNTISGTSMATPHVAGLAAKIWSANTSLSHSQLRTELQNRAKVYDIKGGIGAGTGDDYASGFGYPRVK
